Test results published in the RNAGym collection of RNA variant scans (doi:10.1073/pnas.2313332121).

B1: TPR t1 (parent)
chain: GACCAAUCUGCCCUCAGAGCUCGAGAACAUCUUCGGAUGCAGAGGAGGCAGGCUUCGGUGGCGCGAUAGCGCCAACGUCCUCAACCUCCAAUGCAUCCCACCACAUGAUGAUGCCUGAAGAGCCUUGGUUUUUUG

Variants of: B1
Test: polymerase ribozyme fitness, log enrichment relative to wild type (log ratio); higher = more active; in vitro selection for triplet polymerase activity
Summary of the method: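 To select mutant libraries of each subunit of a heterodimeric triplet polymerase ribozyme, built by PCR and transcribed, each was annealed with a biotinylated primer, partner subunit and triplets, then incubated frozen at −7 °C. Extended constructs were gel-excised, captured on streptavidin beads and amplified by RT-PCR, in one round carried out in triplicate. Illumina sequencing of input and output libraries kept genotypes with ≥10 input reads and ≥1 read per output. Fitness is the base-2 logarithm of genotype enrichment relative to wild-type enrichment, from inverse-variance-weighted replicate averages.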

Row | Variant | polymerase ribozyme fitness (log ratio)
1 | C85A G113U | -3.47
2 | C82G A84U | 0.00652
3 | C82A U133A | -0.323
4 | C85A C99U G113A | -4.82
5 | C82U A119U | -0.592
6 | A84U U132C | -0.244
7 | C86U U96A U106G | -4.25
8 | A83C C124G | 0.483
9 | C80U U92C | -2.1
10 | C86A G117U | -4.28
11 | A84G G120A U130G | -0.15
12 | C82U C85A A121U | 0.305
13 | C85G C94U | -2.67
14 | A84C U96C A121G U125A | 1.66
15 | C86U A95C | -1.49
16 | C86A G110A | -1.86
17 | A83C G128C | -2.09
18 | C85U U92C G127U G128A | -6.04
19 | A83C A95U U116C | -1.65
20 | A84U U129A | -1.65
21 | A83C G113A | -1.32
22 | A83C G113C | -2.78
23 | A84G C115U | -2.86
24 | C82A C115G U130G | -1.11

Row | Variant | polymerase ribozyme fitness (log ratio)
25 | U81G C101A U106A | -2.9
26 | C82A U116C C123A | -2.84
27 | A83C G93A A111C G113U | -4.96
28 | C86A U87A | -2.7
29 | C85U G93A G120U | -0.509
30 | C85U A91C | -2.1
31 | C86G G120C | 0.661
32 | A84C U96C | -0.0472
33 | U81A U92A A118G | -5.64
34 | A83C U106A C123U | 1.46
35 | U81C A83G | -1.15
36 | C82U U125A | -0.249
37 | C85U C89G | -1.76
38 | C82G C124U | 1.29
39 | C82A A91C | -1.72
40 | C85G C88U C123A | -0.368
41 | C86A G113C | -3.02
42 | C85U U116A G120C | -1.14
43 | A84U C101A U116G A121U | -0.796
44 | C80U U131G | -0.642
45 | C82U G113A | -1.1
46 | A84U G93C | -1.39
47 | A83C G110C G120C | -5.9
48 | C85G U106C | -0.939

Row | Variant | polymerase ribozyme fitness (log ratio)
49 | A83C C101U | 0.114
50 | C86A U109A | -5.39
51 | C85G C89U G110U | -2.09
52 | U81C C115G | -2.02
53 | C82A C88A G113A | -1.71
54 | A84U A103U G110C | -3.57
55 | C82A G93C | -1.06
56 | A83U U132C | -0.0917
57 | C82A A111U | -3.3
58 | C82U C86U G110A U133C | -0.604
59 | C86A C99U C101U A121G G122U | -1.38
60 | C85A U106A U125A | -3.11
61 | C86G C98U | -1.59
62 | U81A G110U | -2.6
63 | U81C C115A G128C U131G | -4.42
64 | C82G U130A | -1.07
65 | C82G C88A | -1.21
66 | C82A C89A A105U U112G | -4.43
67 | U81A G93C | -2.88
68 | A83C A100U G120A U130C | -3.75
69 | A84C G120A | 0.816
70 | U81A C97U | -1.89
71 | U81G G113C | -4.85
72 | C86U A111U | -2.11

Row | Variant | polymerase ribozyme fitness (log ratio)
73 | U81A C101A G110C U131G G135U | -7.53
74 | U81C C102U | -2.2
75 | C82A C85A G120U | -0.479
76 | C86G U133A | -0.824
77 | U81A C86A | -2.24
78 | U81A C86U | -1.8
79 | C85A G110A | -2.98
80 | A84G C85A G127U | -5.16
81 | C86G C123U | 0.323
82 | C86G C123A | -0.0336
83 | A83C A111U U134G | -2.14
84 | A83G A118U | 0.587
85 | C80U U129G U133A | -2.36
86 | C86G G122U | -1.75
87 | A83C C104A C115U | -4.27
88 | C82U U133A | -0.572
89 | C86U C101G | -2.55
90 | C82G C89A | -2.23
91 | A84G C102A | -3.38
92 | C86A G107U A121U U132C | -3.32
93 | U81C C88A C123G G135U | 1.08
94 | A83C U96G U106A A121C | 1.64
95 | C82G A95U A105G | -3.5
96 | U81A C88A C101U | -1.46

Row | Variant | polymerase ribozyme fitness (log ratio)
97 | C82U G110U | -1.15
98 | A84G A91U | -3.76
99 | C82G U129G | -1.36
100 | C86G C101U | -0.616
101 | C82A C99U G122A | -3.36
102 | C85A C97A | -7.29
103 | A84G G120A C123A | -0.958
104 | A84G A95U C104A A121C | -2.33
105 | U81G C82A | -2
106 | C85U U87A C89U | -2.94
107 | C82G C114A | -3.29
108 | C82G U125A | -0.86
109 | A84C C85G U133C | -0.825
110 | A84U C124U | 0.806
111 | C82A G120C | -0.101
112 | A83G A84C | -1.03
113 | U81A A95U C102G A103U G110C U125G | -6.02
114 | A84U G135U | -1.03
115 | A84U G110C | -4.16
116 | A84U U96A C99G C114A | -6.17
117 | C85U C94G C104U | -1.9
118 | C82U C86G A121G | 1.16
119 | A83G C85A | -2.68
120 | C85A G107A U112G C114U G120U | -7.47

Row | Variant | polymerase ribozyme fitness (log ratio)
121 | A84G G93U G120U | -2.23
122 | C85G G113U | -4.31
123 | C85U U109A A121G | -4.29
124 | A83C U109C | -4.51
125 | C85G C88A C101A | -2.28
126 | C86U U112C | 0.942
127 | C86U U112G | 0.18
128 | C86U C104U | -0.296
129 | C82A G93C C115U G122A | -3.46
130 | C86G A103G | -5.43
131 | U81C A90C U112G | -2.24
132 | U81G C86U G120U U133A | -4.01
133 | C85U C114U | -3.18
134 | A84C U130A | -0.44
135 | A83G G120U | -0.6
136 | A84G G117U | -3.75
137 | C85A U106A | -2.53
138 | C85G U112A U126A | -1.28
139 | C85G C86U U92A | -5.3
140 | C82U U134G | 0.46
141 | A83C A84C G128A U131A | -2.01
142 | C85A C88U U96G G113U | -5.67
143 | C85A G127C | -4.59
144 | C85A G127U | -4.56

Row | Variant | polymerase ribozyme fitness (log ratio)
145 | A83U A100C C114U | -3.1
146 | A84U C101G U125G | -2.42
147 | C85G U112A C115U | -2.5
148 | A84G G117U G135U | -4.65
149 | C82A U129C | -0.227
150 | C82A U129A | -2.69
151 | U81A C89A | -2.06
152 | A83G U129G | -1.68
153 | C82G G117U C123G C124U | -1.39
154 | A83U A91U U92G A111C U130C | -3.89
155 | A83C U126A | -1.84
156 | C82A U109G | -4.53
157 | U81A A95C A121C | 0.395
158 | C86U C98U G117C | -5.99
159 | C82U C97G | -4.81
160 | C82U C97A | -4.95
161 | C82G C97U | -1.16
162 | A84U C102A A103G U109G C114U | -3.45
163 | C86G U112C | -1.94
164 | A83C C102A | -2.03
165 | U81C G93C | -1.57
166 | A84C C94A | -1.23
167 | A84U U112A | 0.956
